Laboratory results taken from the supplement of paper PMC9732359.
± gives the uncertainty stated by the source.

Experiment: protein stability index of a GFP-peptide fusion (yeast GPS) (PSI 1-4); higher = more stable; sorted into four equal gates, so the index is relative within each strain
Outline: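 Yeast carrying a pooled library were grown to mid-log phase in leucine-free medium. Each library plasmid expresses Cherry and has a tiled 17-residue yeast protein peptide fused downstream of GFP. Cells were sorted into four equal gates by GFP/Cherry ratio, and plasmids from each gate were PCR-amplified, Illumina-sequenced and assigned to strains by barcode. Summing, across gates, the read frequency times the gate number gave each peptide's protein stability index.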

For LNRQNDITDGKDYHTLA [RPS18A], the protein stability index (doa10∆) was 3.13 ± 0.069, the protein stability index (pdr5∆) was 3.33 ± 0.061 and the protein stability index (san1∆) was 3.27 ± 0.05. The protein stability index (ubr1∆) was 3.11 ± 0.06.

MHRPVHFLQFSELAGDE [PRP8] showed a protein stability index (doa10∆) of 3.23 ± 0.081, a protein stability index (pdr5∆) of 3.15 ± 0.084 and a protein stability index (san1∆) of 2.88 ± 0.059. The protein stability index (ubr1∆) was 3.05 ± 0.06.

RTRRLKRKRRKVRARSK [RPL41A] showed a protein stability index (pdr5∆) of 3.13 ± 0.22 and a protein stability index (ubr1∆) of 3.22 ± 0.2.

Sequence HRCAIRSGALIKFKKCD [SSN2] has a protein stability index (doa10∆) of 2.28 ± 0.096, a protein stability index (pdr5∆) of 2.26 ± 0.1 and a protein stability index (san1∆) of 2.77 ± 0.054. The protein stability index (ubr1∆) was 2.49 ± 0.11.

Work on CMEVASAFMKFSKAIEW [BRR2] yielded a protein stability index (doa10∆) of 2.12 ± 0.064, a protein stability index (pdr5∆) of 2.21 ± 0.047 and a protein stability index (san1∆) of 2.42 ± 0.068. The protein stability index (ubr1∆) was 1.98 ± 0.043.

ENGDEDEDEDEDEDDDD [QCR6] showed a protein stability index (doa10∆) of 2.01 ± 0.045, a protein stability index (pdr5∆) of 1.74 ± 0.038 and a protein stability index (san1∆) of 1.92 ± 0.05. The protein stability index (ubr1∆) was 2.46 ± 0.043.

With NDNNSPHTPVTRKGYIP [YLR018C/POM34] the protein stability index (doa10∆) was 3.1 ± 0.081, the protein stability index (pdr5∆) was 2.88 ± 0.073 and the protein stability index (san1∆) was 2.85 ± 0.078. The protein stability index (ubr1∆) was 3.01 ± 0.055.

Sequence GVIDDSFDVAISTACPR [SMC4] has a protein stability index (doa10∆) of 2.59 ± 0.077, a protein stability index (pdr5∆) of 3.09 ± 0.046 and a protein stability index (san1∆) of 2.45 ± 0.058. It also gave a protein stability index (ubr1∆) of 2.7 ± 0.049.

Work on LATRRVLQEYRLTKQAF [RPO21] yielded a protein stability index (doa10∆) of 2.99 ± 0.082, a protein stability index (pdr5∆) of 3.1 ± 0.1 and a protein stability index (san1∆) of 3.01 ± 0.065. It also gave a protein stability index (ubr1∆) of 3.17 ± 0.056.

In the case of HVLSRLSYISALGMMTR [RET1], the protein stability index (doa10∆) is reported as 1.35 ± 0.073, the protein stability index (pdr5∆) is reported as 1.32 ± 0.053 and the protein stability index (san1∆) is reported as 1.24 ± 0.13. For the same sequence, the protein stability index (ubr1∆) was 1.33 ± 0.073.

With EQLSKQRDLYKRKEELV [SMC2] the protein stability index (doa10∆) was 2.34 ± 0.15, the protein stability index (pdr5∆) was 3.1 ± 0.19 and the protein stability index (san1∆) was 2.67 ± 0.086. The protein stability index (ubr1∆) was 2.73 ± 0.084.

With VLQPLLPRELPKLLDAL [SNU114] the protein stability index (doa10∆) was 2.15 ± 0.072, the protein stability index (pdr5∆) was 2.2 ± 0.11 and the protein stability index (san1∆) was 2.73 ± 0.11. For the same sequence, the protein stability index (ubr1∆) was 2.6 ± 0.096.

For QQPHYIQRTRERKKSIG [DSN1], the protein stability index (doa10∆) was 2.93 ± 0.067, the protein stability index (pdr5∆) was 2.85 ± 0.047 and the protein stability index (san1∆) was 2.63 ± 0.048. The protein stability index (ubr1∆) was 2.69 ± 0.051.

Sequence ERAKNVNGLLQVLMDIN [GAL11] has a protein stability index (doa10∆) of 2.94 ± 0.086, a protein stability index (pdr5∆) of 3.15 ± 0.083 and a protein stability index (san1∆) of 3.19 ± 0.12. For the same sequence, the protein stability index (ubr1∆) was 2.83 ± 0.04.

For ADYWTHAYRDVLAQYHE [SNF6], the protein stability index (doa10∆) was 3.02 ± 0.071, the protein stability index (pdr5∆) was 3.23 ± 0.08 and the protein stability index (san1∆) was 3.06 ± 0.058. The protein stability index (ubr1∆) was 2.81 ± 0.049.

QEQITLYDHWDKYHEQW [SSN8] gave a protein stability index (doa10∆) of 3.32 ± 0.19, a protein stability index (pdr5∆) of 3.12 ± 0.12 and a protein stability index (san1∆) of 2.84 ± 0.071. The protein stability index (ubr1∆) was 2.76 ± 0.046.

VIYRGPEPSHIDQVMMS [RET1] showed a protein stability index (doa10∆) of 3.01 ± 0.085, a protein stability index (pdr5∆) of 3.23 ± 0.13 and a protein stability index (san1∆) of 3.19 ± 0.067. For the same sequence, the protein stability index (ubr1∆) was 2.77 ± 0.088.

Work on TNNKKLLEKANNQQRLL [SMC3] yielded a protein stability index (doa10∆) of 2.01 ± 0.11, a protein stability index (pdr5∆) of 1.94 ± 0.091 and a protein stability index (san1∆) of 2.58 ± 0.18. It also gave a protein stability index (ubr1∆) of 1.49 ± 0.063.

Work on MDNKTPVTLAKVIKVLG [RPS28A] yielded a protein stability index (doa10∆) of 1.16 ± 0.12, a protein stability index (pdr5∆) of 1.77 ± 0.22 and a protein stability index (san1∆) of 1.16 ± 0.27. The protein stability index (ubr1∆) was 2.55 ± 0.27.

For SKIFNESFPDDIPLAKA [CDC53], the protein stability index (doa10∆) was 2.68 ± 0.056, the protein stability index (pdr5∆) was 2.89 ± 0.067 and the protein stability index (san1∆) was 2.55 ± 0.049. The protein stability index (ubr1∆) was 2.82 ± 0.037.

KFDIIIVDTSGRHHQEE [SRP54] gave a protein stability index (doa10∆) of 3.01 ± 0.07, a protein stability index (pdr5∆) of 2.94 ± 0.046 and a protein stability index (san1∆) of 2.71 ± 0.072. It also gave a protein stability index (ubr1∆) of 3.17 ± 0.06.

In the case of DDPSKVRLLCRSDGMGN [YLR335W/NUP2], the protein stability index (doa10∆) is reported as 2.94 ± 0.26, the protein stability index (pdr5∆) is reported as 3.66 ± 0.19 and the protein stability index (san1∆) is reported as 2.98 ± 0.16. The protein stability index (ubr1∆) was 2.96 ± 0.15.

Work on YINGKATALANLRKSRG [RPO31] yielded a protein stability index (doa10∆) of 3 ± 0.067, a protein stability index (pdr5∆) of 3.13 ± 0.075 and a protein stability index (san1∆) of 2.81 ± 0.064. For the same sequence, the protein stability index (ubr1∆) was 3 ± 0.067.

VTGFAEVGPWGSARTRW [FAS2] gave a protein stability index (doa10∆) of 2.24 ± 0.079, a protein stability index (pdr5∆) of 3.03 ± 0.086 and a protein stability index (san1∆) of 2.73 ± 0.093. It also gave a protein stability index (ubr1∆) of 2.06 ± 0.071.

KFTTVLAKILARSIDVE [ECM29] gave a protein stability index (pdr5∆) of 1.53 ± 0.2, a protein stability index (san1∆) of 2.94 ± 0.14 and a protein stability index (ubr1∆) of 3.01 ± 0.22.

Work on KTKTSLLPTIKRTICKK [RPR2] yielded a protein stability index (doa10∆) of 3.27 ± 0.11, a protein stability index (pdr5∆) of 3.18 ± 0.13 and a protein stability index (san1∆) of 2.49 ± 0.18. It also gave a protein stability index (ubr1∆) of 3.29 ± 0.13.

In the case of EIMYTGVSISVSFNSKQ [SMC3], the protein stability index (doa10∆) is reported as 1.61 ± 0.089, the protein stability index (pdr5∆) is reported as 1.99 ± 0.07 and the protein stability index (san1∆) is reported as 2.83 ± 0.087. It also gave a protein stability index (ubr1∆) of 2.29 ± 0.1.

TCPGLSLTDVAFFTYDA [ECM29] showed a protein stability index (doa10∆) of 3.36 ± 0.14, a protein stability index (pdr5∆) of 3.05 ± 0.091 and a protein stability index (san1∆) of 2.78 ± 0.072. The protein stability index (ubr1∆) was 3.11 ± 0.099.

PSKGQSLSKISQAFDIV [RPP1] showed a protein stability index (doa10∆) of 3.25 ± 0.095, a protein stability index (pdr5∆) of 3.19 ± 0.085 and a protein stability index (san1∆) of 2.96 ± 0.11. The protein stability index (ubr1∆) was 3.2 ± 0.085.

For HVLNKVTLASILTTAVG [RPN1], the protein stability index (doa10∆) was 1.72 ± 0.14, the protein stability index (pdr5∆) was 1.41 ± 0.079 and the protein stability index (san1∆) was 1.46 ± 0.21. For the same sequence, the protein stability index (ubr1∆) was 1.31 ± 0.19.

For FVDDTNVYRVTVHKTFE [PRP8], the protein stability index (doa10∆) was 2.68 ± 0.087, the protein stability index (pdr5∆) was 2.74 ± 0.11 and the protein stability index (san1∆) was 2.21 ± 0.096. The protein stability index (ubr1∆) was 2.52 ± 0.068.

Work on NLSVTSPYNADFDGDEM [RPO21] yielded a protein stability index (doa10∆) of 2.83 ± 0.063, a protein stability index (pdr5∆) of 3.14 ± 0.059 and a protein stability index (san1∆) of 2.96 ± 0.061. It also gave a protein stability index (ubr1∆) of 3.04 ± 0.042.

For TKTRKHRGHVSAGKGRI [RPL28], the protein stability index (doa10∆) was 1.91 ± 0.06, the protein stability index (pdr5∆) was 2.21 ± 0.062 and the protein stability index (san1∆) was 2.09 ± 0.12. The protein stability index (ubr1∆) was 2.4 ± 0.062.

Sequence QGGVLPNIHQNLLPKKS [HTA1] has a protein stability index (doa10∆) of 2.67 ± 0.082, a protein stability index (pdr5∆) of 2.75 ± 0.074 and a protein stability index (san1∆) of 2.9 ± 0.076. For the same sequence, the protein stability index (ubr1∆) was 2.71 ± 0.057.

In the case of QSDSAKVEIKKVNSRDD [PRP28], the protein stability index (doa10∆) is reported as 3.08 ± 0.079, the protein stability index (pdr5∆) is reported as 3.44 ± 0.067 and the protein stability index (san1∆) is reported as 2.73 ± 0.088. For the same sequence, the protein stability index (ubr1∆) was 2.9 ± 0.12.

In the case of VADAKQLGEWAGLGKID [RPS12], the protein stability index (doa10∆) is reported as 3.67 ± 0.28, the protein stability index (san1∆) is reported as 3.46 ± 0.24 and the protein stability index (ubr1∆) is reported as 3.35 ± 0.13.

PQDDDSQSKMMSSQISS [MTR3] gave a protein stability index (doa10∆) of 3.14 ± 0.074, a protein stability index (pdr5∆) of 3.17 ± 0.071 and a protein stability index (san1∆) of 3.15 ± 0.043. The protein stability index (ubr1∆) was 3.27 ± 0.053.

Work on FIMASVGKYDKAIELLE [SRP72] yielded a protein stability index (doa10∆) of 2.37 ± 0.12, a protein stability index (pdr5∆) of 2.38 ± 0.11 and a protein stability index (san1∆) of 2.54 ± 0.13. The protein stability index (ubr1∆) was 3.1 ± 0.2.

Sequence AFGEFSLEGCVEMAWIM [FAS2] has a protein stability index (doa10∆) of 2.46 ± 0.1, a protein stability index (pdr5∆) of 2.63 ± 0.12 and a protein stability index (san1∆) of 2.48 ± 0.079. It also gave a protein stability index (ubr1∆) of 2.37 ± 0.088.

Work on IVQELLDKNLIKLVKQN [RPC34] yielded a protein stability index (doa10∆) of 1.97 ± 0.057, a protein stability index (pdr5∆) of 1.99 ± 0.058 and a protein stability index (san1∆) of 2.62 ± 0.068. It also gave a protein stability index (ubr1∆) of 2.57 ± 0.052.

Work on LLDILVKGETRIQNRVK [PRP8] yielded a protein stability index (doa10∆) of 3.38 ± 0.14, a protein stability index (pdr5∆) of 2.98 ± 0.097 and a protein stability index (san1∆) of 3.49 ± 0.096. It also gave a protein stability index (ubr1∆) of 2.94 ± 0.068.

Sequence NFKKFNERRKDLAERAS [SMC3] has a protein stability index (doa10∆) of 1.47 ± 0.061, a protein stability index (pdr5∆) of 1.97 ± 0.073 and a protein stability index (san1∆) of 1.57 ± 0.11. It also gave a protein stability index (ubr1∆) of 2.05 ± 0.097.

KEYISRLWHTLKYYQDL [SNF5] gave a protein stability index (doa10∆) of 1.47 ± 0.068, a protein stability index (pdr5∆) of 1.55 ± 0.06 and a protein stability index (san1∆) of 1.42 ± 0.1. The protein stability index (ubr1∆) was 1.58 ± 0.054.
